Measurements reported in the Immune Epitope Database (IEDB).

Legend:
[1] = biological target: HLA-A*02:01; experiment: IEDB peptide-MHC binding, purified MHC/competitive/fluorescence; ≥ and ≤ were set here for values at or beyond the usual limits of such assays
[2] = biological target: HLA-A*01:01; experiment: as above
[3] = biological target: HLA-A*03:01; experiment: IEDB peptide-MHC binding, purified MHC/direct/fluorescence; filed as Kd, often an IC50 or EC50 that approximates it; ≥ and ≤ were set here for values at or beyond the usual limits of such assays
[4] = biological target: HLA-A*02:01; experiment: as above
[5] = biological target: HLA-B*40:01; experiment: as above
[6] = biological target: HLA-B*07:02; experiment: as above
[7] = biological target: HLA-A*11:01; experiment: as above
[8] = biological target: HLA-B*08:02; experiment: as above
[9] = biological target: HLA-A*69:01; experiment: as above
[10] = biological target: HLA-A*31:01; experiment: as above
[11] = biological target: HLA-B*15:01; experiment: as above
[12] = biological target: HLA-A*01:01; experiment: as above
[13] = biological target: HLA-A*26:01; experiment: as above
[14] = biological target: HLA-B*27:05; experiment: as above
[15] = biological target: HLA-B*46:01; experiment: as above
[16] = biological target: HLA-B*18:01; experiment: as above
[17] = biological target: HLA-A*24:02; experiment: as above
[18] = biological target: HLA-B*44:02; experiment: as above
[19] = biological target: HLA-B*58:01; experiment: as above
[20] = biological target: HLA-B*08:01; experiment: as above
[21] = biological target: HLA-A*24:03; experiment: IEDB peptide-MHC binding, purified MHC/competitive/fluorescence; filed as Kd, often an IC50 or EC50 that approximates it; ≥ and ≤ were set here for values at or beyond the usual limits of such assays; settings: source organism: Escherichia coli str. K-12 substr. MG1655
[22] = biological target: HLA-B*15:09; experiment: IEDB peptide-MHC binding, purified MHC/direct/fluorescence; filed as Kd, often an IC50 or EC50 that approximates it; ≥ and ≤ were set here for values at or beyond the usual limits of such assays; settings: source organism: Influenza A virus(A/swine/Henan/8/2004(H9N2))
[23] = biological target: HLA-B*48:01; experiment: IEDB peptide-MHC binding, purified MHC/competitive/fluorescence; filed as Kd, often an IC50 or EC50 that approximates it; ≥ and ≤ were set here for values at or beyond the usual limits of such assays
[24] = biological target: HLA-B*27:05; experiment: as above; settings: source organism: Mammarenavirus juninense
[25] = biological target: HLA-A*02:01; experiment: IEDB peptide-MHC binding, purified MHC/competitive/radioactivity; ≥ and ≤ were set here for values at or beyond the usual limits of such assays
[26] = biological target: HLA-B*35:01; experiment: IEDB peptide-MHC binding, purified MHC/competitive/fluorescence; filed as Kd, often an IC50 or EC50 that approximates it; ≥ and ≤ were set here for values at or beyond the usual limits of such assays; settings: source organism: Shigella boydii CDC 3083-94
[27] = biological target: HLA-B*58:01; experiment: as above; settings: source organism: Shigella boydii CDC 3083-94
[28] = biological target: HLA-B*35:01; experiment: IEDB peptide-MHC binding, purified MHC/direct/fluorescence; filed as Kd, often an IC50 or EC50 that approximates it; ≥ and ≤ were set here for values at or beyond the usual limits of such assays
[29] = biological target: HLA-C*12:03; experiment: as above; settings: source organism: Mycobacterium tuberculosis variant bovis
[30] = biological target: HLA-C*15:02; experiment: as above; settings: source organism: Mycobacterium tuberculosis variant bovis
[31] = biological target: HLA-C*05:01; experiment: as above; settings: source organism: Mycobacterium tuberculosis variant bovis
[32] = biological target: HLA-A*02:01; experiment: IEDB peptide-MHC binding, purified MHC/competitive/fluorescence; filed as Kd, often an IC50 or EC50 that approximates it; ≥ and ≤ were set here for values at or beyond the usual limits of such assays; settings: source organism: Yersinia pestis Nepal516
[33] = biological target: HLA-B*40:01; experiment: as above
[34] = biological target: HLA-B*39:01; experiment: as above; settings: source organism: Yersinia pestis Nepal516
[35] = biological target: HLA-B*15:01; experiment: IEDB peptide-MHC binding, purified MHC/competitive/fluorescence; ≥ and ≤ were set here for values at or beyond the usual limits of such assays; settings: source organism: Vaccinia virus
[36] = biological target: HLA-A*30:01; experiment: IEDB peptide-MHC binding, purified MHC/direct/fluorescence; filed as Kd, often an IC50 or EC50 that approximates it; ≥ and ≤ were set here for values at or beyond the usual limits of such assays; settings: source organism: Escherichia coli
[37] = biological target: HLA-A*24:03; experiment: as above; settings: source organism: Rickettsia prowazekii
[38] = source organism: Giardia lamblia ATCC 50803
[39] = source organism: Influenza A virus (A/duck/Korea/S10/03(H3N2))
[40] = source organism: Zaire ebolavirus
[41] = source organism: Vibrio parahaemolyticus
[42] = source organism: Escherichia coli
[43] = source organism: Shigella dysenteriae
[44] = source organism: Influenza A virus (A/South Carolina/1/1918(H1N1))
[45] = source organism: Rickettsia prowazekii

Sequence: ITDFHERPV
- IC50 ([1]; source organism: Variola virus): 5.75 µM
- IC50 ([2]; source organism: Variola virus): 6.25 µM

Sequence: VSSKKCTAL
- Kd [3, 38]: ≥ 20 µM
- Kd [4, 38]: ≥ 20 µM
- Kd [5, 38]: ≥ 20 µM
- Kd [6, 38]: ≥ 20 µM
- Kd [7, 38]: ≥ 20 µM
- Kd [8, 38]: ≥ 20 µM
- Kd [9, 38]: ≥ 20 µM
- Kd [10, 38]: ≥ 20 µM
- Kd [11, 38]: ≥ 20 µM
- Kd [12, 38]: ≥ 20 µM
- Kd [13, 38]: ≥ 20 µM
- Kd [14, 38]: ≥ 20 µM
- Kd [15, 38]: ≥ 20 µM
- Kd [16, 38]: ≥ 20 µM
- Kd [17, 38]: ≥ 20 µM
- Kd [18, 38]: ≥ 20 µM
- Kd [19, 38]: ≥ 20 µM
- Kd [20, 38]: 17.7 µM

Sequence: IYPGVNHGF
- Kd [21]: 0.0003 µM

Sequence: PAHKSQLVW
- Kd [3, 39]: ≥ 20 µM
- Kd [4, 39]: ≥ 20 µM
- Kd [22]: ≥ 20 µM
- Kd [5, 39]: ≥ 20 µM
- Kd [6, 39]: ≥ 20 µM
- Kd [7, 39]: ≥ 20 µM
- Kd [9, 39]: ≥ 20 µM
- Kd [10, 39]: ≥ 20 µM
- Kd [11, 39]: ≥ 20 µM
- Kd [12, 39]: ≥ 20 µM
- Kd ([13]; source organism: Influenza A virus(A/swine/Henan/8/2004(H9N2))): ≥ 20 µM
- Kd [14, 39]: ≥ 20 µM
- Kd [15, 39]: ≥ 20 µM
- Kd [16, 39]: ≥ 20 µM
- Kd [17, 39]: ≥ 20 µM
- Kd [18, 39]: ≥ 20 µM
- Kd [19, 39]: 2.21 µM
- Kd [20, 39]: ≥ 20 µM

Sequence: RQWFIDVPL
- Kd ([23]; source organism: dengue virus type 2): 0.0684 µM

Sequence: YRWVNLASF
- Kd [24]: 0.0981 µM

Sequence: DYLTTYFTW
- Kd ([17]; source organism: Bacillus anthracis str. A0488): ≤ 0.001 µM

Sequence: PTLDKVLEL
- IC50 ([25]; source organism: Homo sapiens): 10 µM

Sequence: KAWSEGLAM
- Kd [26]: 0.0002 µM
- Kd [27]: 0.458 µM

Sequence: NTSKSTDFL
- IC50 [1, 40]: ≥ 495 µM
- IC50 [2, 40]: ≥ 191 µM

Sequence: YPKCDLVEL
- Kd [3, 41]: ≥ 20 µM
- Kd [4, 41]: ≥ 20 µM
- Kd [5, 41]: ≥ 20 µM
- Kd [6, 41]: 0.224 µM
- Kd [7, 41]: ≥ 20 µM
- Kd [9, 41]: 0.177 µM
- Kd [10, 41]: ≥ 20 µM
- Kd [11, 41]: ≥ 20 µM
- Kd [12, 41]: ≥ 20 µM
- Kd [13, 41]: ≥ 20 µM
- Kd [14, 41]: ≥ 20 µM
- Kd [28, 41]: 0.00816 µM
- Kd [18, 41]: ≥ 20 µM
- Kd [19, 41]: ≥ 20 µM
- Kd [20, 41]: 0.54 µM

Sequence: RQGKPDWLL
- Kd ([23]; source organism: Vibrio vulnificus CMCP6): 0.124 µM

Sequence: VTNDGVIFF
- Kd [29]: 0.319 µM
- Kd ([13]; source organism: Mycobacterium tuberculosis variant bovis): 1.09 µM
- Kd [30]: ≥ 20 µM
- Kd [31]: 0.003 µM

Sequence: TQFGVPFVL
- Kd [32]: 0.0135 µM
- Kd ([33]; source organism: Yersinia pestis Nepal516): 0.205 µM
- Kd [34]: 0.0003 µM

Sequence: PSIATNLEY
- IC50 [35]: 43.7 µM
- IC50 ([2]; source organism: Vaccinia virus): 15.2 µM

Sequence: RALAYDPAL
- Kd ([23]; source organism: Burkholderia mallei SAVP1): 0.0808 µM

Sequence: FLPADFFPSV
- IC50 ([25]; source organism: Hepatitis B virus): 0.0012 µM

Sequence: TTFPVNGGY
- Kd [3, 42]: 1.46 µM
- Kd [4, 43]: ≥ 20 µM
- Kd [36]: 16 µM
- Kd [5, 43]: ≥ 20 µM
- Kd [6, 43]: ≥ 20 µM
- Kd [7, 42]: 5.77 µM
- Kd [9, 42]: 0.334 µM
- Kd [10, 43]: ≥ 20 µM
- Kd [11, 42]: 0.165 µM
- Kd [12, 42]: 0.345 µM
- Kd [13, 42]: 0.0228 µM
- Kd [14, 43]: ≥ 20 µM
- Kd [28, 42]: 0.097 µM
- Kd [18, 43]: ≥ 20 µM
- Kd [19, 42]: ≥ 10 µM
- Kd [20, 43]: ≥ 20 µM

Sequence: IWIKLSYLW
- Kd ([17]; source organism: Cryptosporidium parvum Iowa II): 0.01 µM

Sequence: RLFFKCIYR
- Kd ([3]; source organism: Influenza A virus (A/Puerto Rico/8/34/Mount Sinai(H1N1))): 0.146 µM
- Kd [4, 44]: ≥ 20 µM
- Kd [5, 44]: ≥ 20 µM
- Kd [6, 44]: ≥ 20 µM
- Kd ([8]; source organism: Influenza A virus H3N2): ≥ 20 µM
- Kd [11, 44]: ≥ 20 µM
- Kd [12, 44]: ≥ 20 µM
- Kd [14, 44]: ≥ 20 µM
- Kd [15, 44]: ≥ 20 µM
- Kd [16, 44]: ≥ 20 µM
- Kd [17, 44]: ≥ 20 µM
- Kd [18, 44]: ≥ 20 µM
- Kd [19, 44]: ≥ 20 µM
- Kd [20, 44]: ≥ 20 µM

Sequence: VESKNFADF
- Kd ([33]; source organism: Bacillus cereus G9241): 0.418 µM

Sequence: NLKLYGAEF
- Kd [3, 45]: ≥ 20 µM
- Kd [4, 45]: ≥ 20 µM
- Kd [5, 45]: ≥ 20 µM
- Kd [6, 45]: ≥ 20 µM
- Kd [7, 45]: ≥ 20 µM
- Kd [9, 45]: ≥ 20 µM
- Kd [10, 45]: ≥ 20 µM
- Kd [11, 45]: 0.133 µM
- Kd [12, 45]: ≥ 20 µM
- Kd [13, 45]: ≥ 20 µM
- Kd [14, 45]: ≥ 20 µM
- Kd [37]: 11.6 µM
- Kd [28, 45]: 0.281 µM
- Kd [18, 45]: ≥ 20 µM
- Kd [19, 45]: ≥ 20 µM
- Kd [20, 45]: 0.433 µM

Sequence: RTLDKVLEV
- IC50 ([25]; source organism: Homo sapiens): 0.04 µM
